Tests used:
[1] = target: T1, Danio rerio CPAP^937–1124 TCP domain, WT (Danio rerio, UniProt E7FCY1 937-1124); test: crystal structure; D. rerio CPAP^937–1124 with D. rerio STIL^408–428, protein/peptide mixture; 100 mM Tris pH 8.5, 200 mM CaAcetate, 17% PEG-2000 MME, 19.5°C; conditions: both partners purified
T1 construct: remnant of the cloning and protease cleavage sites at the N-terminus; also called TCP domain of D. rerio CPAP; G-box; source: E. coli BL21 (DE3) Rosetta, purified (NiNTA, proteolytic tag cleavage, optionally size exclusion, ion exchange); not shown: His tag, N-terminal, cleaved
T1 sequence: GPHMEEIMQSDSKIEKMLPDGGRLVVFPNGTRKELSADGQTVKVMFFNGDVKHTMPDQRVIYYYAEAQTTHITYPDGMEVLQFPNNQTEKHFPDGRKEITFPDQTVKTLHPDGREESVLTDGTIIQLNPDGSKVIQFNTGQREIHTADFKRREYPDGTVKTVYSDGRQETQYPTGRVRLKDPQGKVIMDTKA

[2] = tested on: sas-4(RNAi) C. elegans embryos; test: Monopolar spindle assay after sas-4(RNAi); type: in vivo; conditions: second division
Description: (§1) C. elegans strains carrying single-copy sas-4 transgenes were generated using MosSCI ([Frøkjær-Jensen et al., 2008]). To render the transgenes RNAi-resistant, a 500 bp region at the 5′ end of the sas-4 genomic sequence was re-encoded. The engineered sas-4 sequence was cloned into pCFJ151 with the promoter and 3′ UTR from sas-6, as well as a C-terminal GFP tag. pCFJ151 contains homology arms that direct transposase-mediated insertion of intervening sequence into the ttTi5606 Mos1 site on Chromosome II. Transgene integration was confirmed by PCR of regions spanning each side of the insertion. The genotypes of the strains used are: unc-119(ed9)III; ltSi85[pOD1550; Psas-6::SAS-4 reencoded::GFP; cb-unc-119(+)]II for WT SAS-4; and unc-119(ed9)III; ltSi177[pOD1551; Psas-6::SAS-4(1-556) reencoded::GFP; cb-unc-119(+)]II for SAS-4^ΔTCP.
(§2) Double-stranded sas-4 RNA was generated as described ([Oegema et al., 2001]) using DNA templates prepared by PCR. For experiments to quantify monopolar spindle formation, L4 hermaphrodites were injected with dsRNA and incubated at 20°C for 40 hr prior to dissection for imaging. For lethality assays, worms were maintained at 20°C. L4 hermaphrodites were injected with dsRNA and singled 24 hr post-injection. Adult worms were removed from the plates 48 hr post-injection, and hatched larvae and unhatched embryos were counted 24 hr later. […]

[3] = tested on: sas-4(RNAi) C. elegans embryos; test: Embryonic viability after sas-4(RNAi); type: in vivo
Description: as §1
Double-stranded sas-4 RNA was generated as described ([Oegema et al., 2001]) using DNA templates prepared by PCR. For experiments to quantify monopolar spindle formation, L4 hermaphrodites were injected with dsRNA and incubated at 20°C for 40 hr prior to dissection for imaging. For lethality assays, worms were maintained at 20°C. L4 hermaphrodites were injected with dsRNA and singled 24 hr post-injection. Adult worms were removed from the plates 48 hr post-injection, and hatched larvae and unhatched embryos were counted 24 hr later.

[4] = tested on: centrioles in sas-4(RNAi) C. elegans embryos; test: Localisation of SAS-4::GFP in absence of endogenous protein; type: in vivo
Description: as §1, §2

[5] = SEC-MALS / dynamic light scattering of CPAP TCP domain; type: physicochemical
[6] = target: T1, Danio rerio CPAP^937–1124 TCP domain, WT; test: ITC; STIL peptide in syringe titrated into CPAP TCP domain in cell; 50 mM HEPES pH 7.5, 100 mM NaCl, 25°C; single set of binding sites model, N as a variable; CPAP typically 40 μM, STIL typically 700 μM; conditions: both partners purified
[7] = target: T2, Drosophila melanogaster DSas-4 (dCPAP) TCP domain, residues 700–901 (Drosophila melanogaster, UniProt Q9VI72 700-901); test: crystal structure; D. melanogaster dSTIL^1–47 fused to the N-terminus of dCPAP^700–901 on one chain; sitting drop, Morpheus screen; conditions: both partners purified
T2 construct: source: E. coli B834 (DE3), purified (NiNTA, proteolytic tag cleavage, size exclusion), as a fusion with dSTIL^1–47
T2 sequence (looked up): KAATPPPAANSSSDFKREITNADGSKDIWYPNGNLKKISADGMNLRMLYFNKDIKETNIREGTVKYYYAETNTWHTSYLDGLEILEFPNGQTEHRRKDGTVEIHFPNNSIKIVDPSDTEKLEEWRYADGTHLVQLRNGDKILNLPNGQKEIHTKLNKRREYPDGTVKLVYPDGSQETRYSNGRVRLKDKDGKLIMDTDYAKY

B1: Danio rerio STIL^408–428 (peptide)
chain: GSGVEDEDLSPRPSPNPHPVSQENLYFQ
notes: remnant of the cloning and protease cleavage sites at the N-terminus; remnant of the cloning and protease cleavage sites at the C-terminus; used for crystallisation only; also called STIL peptide; source: E. coli C41 BL21 (DE3), purified (NiNTA, proteolytic cleavage of the His-lipoyl domains, ion exchange); not shown: His-tagged lipoyl domain (Bacillus stearothermophilus dihydrolipoamide …)
binding result [1]: binds

B2: SAS-4^WT::GFP: C. elegans WT SAS-4 (aa 1–808) GFP fusion, RNAi-resistant transgene (protein, UniProt P34402 1-808, looked up)
chain: MASDENIGADGEQKPSRPFLRKGQGTARFRMPRNNKTSAGAPPTSELSSASSPSINVPRFSLSNALPNSARTVDSGISNEDETRPPTTASLPMDQPSLSSSPENRLNPAPSVAEEHGHSGQHAEEEEDNDTDEVSAMPSFVPDEPSTLVNSDHELSDDALKYKNAAAEFKAFERRMDSMRSASTITTSLATPSSCAPSNSSEPPTRSTPIMNDLGVGPNNHNWPSSMQELSGISLETPQARPLGSNRINQLVRSEAQTGISLLQHHERPTVTAPLRRNDMMNSSRQNPQNGNVQDENRPEHVYDQPIHVPGSSLDRQKLEIEIRRHRNLNIQLRDTIAHLDYAEESVHTTKRQLEEKISEVNNFKKELIEEFKKCKKGVEEEFEKKFEKIKEDYDELYEKLKRDQRDLERDQKILKKGTGERNKEFTETIATLRDKLRASETKNAQYRQDIRVRDEKLKKKDEEIEKLQKDGNRLKSTLQTLEKRVKQLRTEKERDDKEKEMFAKVAMNRKTSNPVPPVLNQSVPISITSNGPSRHPSSSSLTTFRKPSTSNRERGVSWADEPNEQSLEAVPQEFLMMPVKEMPGKFGKCTIYRDSLGETSKVTDTIANGLLFEYSNGDLRWVNRQNAVNIYISAVDKTVRIDLPTYNISIIHTFQRQVEVLRPGNNITLISIKRREVRTDLIYQNGMYKTEIFNRDGRYVTKDFSNQEVSRKYNPGTHTYRDNQCRYVLVTDYNDFELVEPEFRLRWYQGDPTGLNNQYILKIIGRPECSEKTLRLEVNLSTCEGTLETAEMIGDKRRKTTLFQWKK
modifications: full-length GFP fusion
notes: C. elegans WT SAS-4 (aa 1–808) GFP fusion, RNAi-resistant transgene
rescue of monopolar spindle phenotype [2]: fully rescued
rescue of embryonic viability [3]: fully rescued
centriole targeting [4]: targeted to centrioles

B3: CPAP^937–1124: TCP domain of Danio rerio CPAP, residues 937–1124, recombinant, GPHM at N-terminus (protein)
chain: GPHMEEIMQSDSKIEKMLPDGGRLVVFPNGTRKELSADGQTVKVMFFNGDVKHTMPDQRVIYYYAEAQTTHITYPDGMEVLQFPNNQTEKHFPDGRKEITFPDQTVKTLHPDGREESVLTDGTIIQLNPDGSKVIQFNTGQREIHTADFKRREYPDGTVKTVYSDGRQETQYPTGRVRLKDPQGKVIMDTKA
modifications: left off: His tag, N-terminal, cleaved
notes: TCP domain of Danio rerio CPAP, residues 937–1124, recombinant, GPHM at N-terminus
oligomeric state in solution ([5]; SAXS and SEC-MALS): predominantly monomeric in solution
molar mass (averaged across central 50% of peak) ([5]; SEC-MALS, injected at approximately 460 μM, 25 mM bis Tris pH 7.2, 100 mM NaCl, theoretical monomer 22 kDa): 23 kDa
Rh (hydrodynamic radius) ([5]; dynamic light scattering with SEC, intermediate concentration, 25 mM bis Tris pH 7.2, 100 mM NaCl): 2.9 ± 0.15 nm

B4: Danio rerio STIL^429–448 (peptide)
chain: GQTKRVHPLVPELSMVLDGSFEFGENLYFQ
notes: remnant of the cloning and protease cleavage sites at the N-terminus; STIL, Danio rerio, residues 429-448; remnant of the cloning and protease cleavage sites at the C-terminus; expression and purification are told for STIL^404–448; also called C-terminal region of CR2 peptide; source: E. coli C41 BL21 (DE3), purified (NiNTA, proteolytic cleavage of the His-lipoyl domains, ion exchange); not …
Kd [6]: 540 µM
dH [6]: -26.4 kJ/mol
stoichiometry N [6]: 0.97

B5: SAS-4^ΔTCP::GFP: C. elegans SAS-4 (aa 1–556) with TCP domain (aa 557–808) deleted, GFP fusion (protein, UniProt P34402 1-556, looked up, fragment)
chain: MASDENIGADGEQKPSRPFLRKGQGTARFRMPRNNKTSAGAPPTSELSSASSPSINVPRFSLSNALPNSARTVDSGISNEDETRPPTTASLPMDQPSLSSSPENRLNPAPSVAEEHGHSGQHAEEEEDNDTDEVSAMPSFVPDEPSTLVNSDHELSDDALKYKNAAAEFKAFERRMDSMRSASTITTSLATPSSCAPSNSSEPPTRSTPIMNDLGVGPNNHNWPSSMQELSGISLETPQARPLGSNRINQLVRSEAQTGISLLQHHERPTVTAPLRRNDMMNSSRQNPQNGNVQDENRPEHVYDQPIHVPGSSLDRQKLEIEIRRHRNLNIQLRDTIAHLDYAEESVHTTKRQLEEKISEVNNFKKELIEEFKKCKKGVEEEFEKKFEKIKEDYDELYEKLKRDQRDLERDQKILKKGTGERNKEFTETIATLRDKLRASETKNAQYRQDIRVRDEKLKKKDEEIEKLQKDGNRLKSTLQTLEKRVKQLRTEKERDDKEKEMFAKVAMNRKTSNPVPPVLNQSVPISITSNGPSRHPSSSSLTTFRKPSTSNRERG
modifications: GFP fusion
notes: C. elegans SAS-4 (aa 1–556) with TCP domain (aa 557–808) deleted, GFP fusion
rescue of monopolar spindle phenotype [2]: not by the ΔTCP transgene
rescue of embryonic viability [3]: not by the ΔTCP transgene
centriole targeting [4]: did not, and instead exhibited a diffuse accumulation in the pericentriolar material

B6: Danio rerio STIL^411–428 (peptide)
chain: GEDEDLSPRPSPNPHPVSQENLYFQ
notes: remnant of the cloning and protease cleavage sites at the N-terminus; remnant of the cloning and protease cleavage sites at the C-terminus; expression and purification are told for STIL^404–448; the same paragraph gives the extra residues of this construct; also called N-terminal region of CR2 peptide; source: E. coli C41 BL21 (DE3), purified (NiNTA, proteolytic cleavage of the His-lipoyl …)
Kd [6]: 4 µM
dH [6]: -47.3 kJ/mol
stoichiometry N [6]: 0.98

B7: Drosophila melanogaster Ana2 (dSTIL) residues 1–47 (domain or fragment, UniProt Q9XZ31 1-47, looked up)
chain: MFVPETEDMLPRLAPRPSAAVPMGHTNEIIGPTVPEVSILFGQPPQD
notes: Ana2 (dSTIL), Drosophila melanogaster, residues 1-47, the region equivalent to CR2; codon-optimised gene; no linker or residues left by tag cleavage are told; also called dSTIL^1–47; dSTIL peptide; not shown: His tag, N-terminal, cleaved
binding result [7]: binds

— paper PMC3776556, “Crystal structures of the CPAP/STIL complex reveal its role in centriole assembly and human microcephaly” (eLife, 2013)
